Results published in patent US20090214574A1 (AFFIMED, published 2009).

B1: human anti-CD16A scFv 50NI (scFv)
scFv: EVQLVQSGAEVKKPGESLKVSCKASGYTFTSYYMHWVRQAPGQGLEWMGIINPSGGSTSYAQKFQGRVTMTRDTSTSTVYMELSSLRSEDTAVYYCARGSAYYYDFADYWGQGTLVTVSSGSASAPTLKLEEGEFSEARVSYELMQPPSVSVSSGQTASIPCSGDKLEEKYVSWYQQRPGQSPVLVIYQDNKRPSGIPERFSGSNSGNTATLTISGTQAMDEADYYCQVWDNYSVLFGGGTKLTVLGQPKAAPSVTLFPPSAAAGSEQKLISEEDLNSHHHHHH
notes: also called clone 50NI; parental clone
B2: affinity matured anti-CD16A scFv 4-LS21 (scFv)
scFv: EVQLVQSGAEVKKPGESLKVSCKASGYTFTSYYMHWVRQAPGQGLEWMGIINPSGGSTSYAQKFQGRVTMTRDTSTSTVYMELSSLRSEDTAVYYCARGSAYYYDFADYWGQGTLVTVSSGSASAPTLKLEEGEFSEARVQPVLTQPSSVSVAPGQTATISCGGHNIGSKNVHWYQQRPGQSPVLVIYQDNKRPSGIPERFSGSNSGNTATLTISGTQAMDEADYYCQVWDNYSVLFGGGTKLTVLGQPKAAPSVTLFPPSAAAGSEQKLISEEDLNSHHHHHH
notes: IMAC-purified from pSKK2

Tests used:
[1] = target: T1, human CD16A-Fc^48R/158V fusion protein (human, UniProt P08637 17-208, limits assumed); assay: SPR, steady state analysis (column Keq)
T1 construct: Secreted soluble fusion made in HEK-293 cells; also called CD16-Fc; CD16A Fc-fusion protein; not shown: Fc portion of human IgG1
Protocol: (§1) The affinity constants (KD values) of the scFv were determined by SPR using the BIAcore 2000 biosensor system (Amersham-Pharmacia). The CD16A-Fc fusion protein and BSA used as a negative control were immobilized on the carboxymethyldextran-coated sensor chip CM5 using conventional NHS/EDC chemistry for the amine coupling procedure (BIAcore). Purified scFvs were diluted in HBS-EP buffer (BIAcore, Uppsala, Sweden). Binding data was generated by passing varying concentrations of the scFv antibodies (100 nM, 200 nM, 400 nM, 800 nM and 1600 nM) over the immobilized antigen. […] All SPR measurements were performed at a constant flow rate of 20 μL/min in HBS-EP buffer at 25° C. Each injected sample (100 μl) was in contact with antigen for 5 minutes. The dissociation was followed for 30 minutes. After each cycle, the surface of the sensor chip was flushed with HBS-EP buffer. Signals from the control channel coated with BSA were automatically subtracted. Kinetic constants were calculated according to the 1/1 Langmuir binding model using the BIAevaluation version 3.0 software (BIAcore).

[2] = target: T2, human CD16B (NA-2 allele) on stably transfected HEK-293 cells (293/CD16B) (human, UniProt O75015 17-200); assay: flow cytometry on 293/CD16B cells; scFv, anti-hexa His MAb 13/45/31-2, FITC goat anti-mouse IgG; MFI minus secondary reagents alone
T2 construct: whole, on cells
Protocol: (§2) The mean fluorescence intensities obtained from flow cytometric analysis were corrected by subtracting the fluorescence values from cell stainings with the secondary reagents alone, and plotted in the diagram.
(§3) For flow cytometric analysis, the following cell lines were used: BW and BW/CD16A transfectants were cultured as described previously. […] The transient transfections were performed using the calcium phosphate method as described in Example 1 and were used for flow cytometric staining and analysis two days after transient transfection. Flow cytometric staining and analysis was performed as essentially described before.

[3] = target: T3, NKp46 extracellular domain fused to zeta chain, on transiently transfected HEK-293 cells (293/NKp46) (human, UniProt O76036 22-258; P20963 31-164); assay: flow cytometry on 293/NKp46 cells; scFv, anti-hexa His MAb 13/45/31-2, FITC goat anti-mouse IgG; MFI minus secondary reagents alone
T3 construct: extracellular domain;domain: transmembrane and cytoplasmic domain; On the cell surface; also called NKp46-transfectants; pcDNA3-NKp46-zeta
Protocol: as §2, §3

NKp46-Fc [4] = target: T4, NKp46-Fc (UniProt O76036 22-258, limits assumed); assay: Western blot on NKp46-Fc
T4 construct: Negative control protein; also called NKp46-Fc control protein; not shown: Fc part, not described
Protocol: For further characterization all of the anti-CD16A scFv were tested for binding in Western Blot on recombinant CD16A-Fc and NKp46-Fc.
The proteins were transferred on a nitrocellulose membrane by electroblotting. After staining with Ponceau S, the membrane was cut into strips of 5 mm width. Each nitrocellulose strip was individually incubated with scFv (4 μg/ml) in PBS, 0.1% tween, 2% skimmed milk. Detection was carried out with the anti-Penta His HRP-conjugate (1 μg/mL) using diaminobenzidine (DAB) as a peroxidase substrate. […] As an additional positive control, a goat anti-human IgG HRP-conjugate (0.16 μg/mL) was used for detection of the Fc portion of the fusion proteins.

[5] = target: T5, commercially available recombinant CD16B (Allele NA-2; BSA free; RD Systems) (UniProt O75015 17-200, limits assumed); assay: ELISA, recombinant CD16B coated at 80 nM
T5 construct: also called recombinant CD16B-Fc
Protocol: (§4) FIG. 3: ELISA on recombinant CD16A-Fc and CD16B. Recombinant CD16A-Fc and CD16B proteins were coated at 80 nM in 0.1 M NaHCO₃, pH 8.8. Wells were blocked with PBS, 2% skimmed milk. The binding of the scFv to the recombinant proteins and to gp34-Fc (negative control) was detected using an anti-c-Myc-HRP conjugate (10 μg/ml). […] Coated recombinant CD16B was directly detected by staining with an anti-His-HRP (1 μg/mL) and coating of the Fc-Fusion proteins was tested by an anti-human IgG-HRP conjugate (0.5 μg/mL). As HRP-substrate, 50 μL of TMB were used. After termination of the reaction with 50 μL 0.5 M H₂SO₄, absorbance was measured at 450 nm.
(§5) In order to generate further supporting data concerning the CD16A specificity of the scFvs, an ELISA was performed using the CD16A-Fc fusion protein (Example 1) and commercially available recombinant CD16B-Fc (Allele NA-2; BSA free; RD Systems). A gp34-Fc fusion protein was used as a negative control. The recombinant proteins were coated overnight at a concentration of 80 nM in 100 mM NaHCO₃ at pH 8.8.
(§6) Detection of scFv bound to the recombinant proteins was carried out by using an anti-c-myc-HRP conjugate (10 μg/ml). […] Binding to the recombinant CD16B was tested by directly staining with anti-His-HRP (1 μg/mL) and binding to the Fc-Fusion proteins was tested by an anti-human IgG-HRP conjugate (0.15 μg/mL).

[6] = target: T6, native CD16B on human polymorphonuclear cells (neutrophilic granulocytes) (human, UniProt O75015 17-200); assay: flow cytometry on freshly isolated PMN; scFv, anti-(His)6 MAb, FITC goat anti-mouse IgG; MFI minus secondary reagents alone
T6 construct: whole, on cells; also called PMN; CD16B-positive granulocytes
Protocol: Polymorphonuclear cells (PMN) and natural killer (NK) cells were isolated from peripheral blood from a healthy donor and used for flow cytometric staining and analysis. […] All scFv were used at a concentration of 50 μg/mL and were detected with 10 μg/mL anti-(His)₆ followed by 15 μg/mL FITC-conjugated goat anti-mouse IgG. The mean fluorescence intensities obtained from flow cytometric analysis were corrected by subtracting the fluorescence values from cell stainings with the secondary reagents alone and were plotted in the diagram.
Enrichment of NK cells was performed by negative selection as described above.

Streptavidin = target: T7, Streptavidin (UniProt P22629 37-163, limits assumed); assay: ELISA on coated streptavidin; periplasmic extract, anti-Penta His-HRP
T7 construct: also called streptavidin alone

[7] = target: T1, human CD16A-Fc^48R/158V fusion protein; assay: SPR, BIAcore 2000, CD16A-Fc immobilized on CM5, 1:1 Langmuir
Protocol: as §1

[8] = target: T1, human CD16A-Fc^48R/158V fusion protein; assay: SPR, BIAcore 2000, CD16A-Fc immobilized on CM5, koff/kon
Protocol: as §1

[9] = target: T1, human CD16A-Fc^48R/158V fusion protein; assay: surface plasmon resonance
[10] = target: T1, human CD16A-Fc^48R/158V fusion protein; assay: SPR, BIAcore 2000, antigen immobilized
Protocol: as §1

[11] = target: T1, human CD16A-Fc^48R/158V fusion protein; assay: SPR, kinetic and steady state analysis
Protocol: as §1

[12] = target: T1, human CD16A-Fc^48R/158V fusion protein; assay: SPR, BIAcore 2000, antigen immobilized, koff/kon
Protocol: as §1

CD16B-Fc^NA1 = target: T8, CD16B-Fc^NA1 (human, UniProt O75015 17-200); assay: ELISA on 200 ng coated antigen; scFv, anti-His-HRP (1 µg/ml)
T8 construct: extracellular domain; not shown: Fc region carried by the pSEC plasmid
Protocol: (§7) FIG. 7: ELISA on different CD16 isoforms. […] An anti-NKp46 scFv used as a primary antibody acted as a negative control.
(§8) Detection of scFv bound to the recombinant proteins was carried out using an anti-His-HRP conjugate (1 μg/ml).

CD16B-Fc^SH = target: T9, CD16B-Fc^SH (human, UniProt O75015 17-200); assay: as above
T9 construct: extracellular domain; not shown: Fc region carried by the pSEC plasmid
Protocol: as §7, §8

NKp46-Fc [13] = target: T4, NKp46-Fc; assay: as above
Protocol: as §7, §8

CD16B-Fc^NA2 = target: T10, CD16B-Fc^NA2 (human, UniProt O75015 17-200); assay: as above
T10 construct: extracellular domain; not shown: Fc region carried by the pSEC plasmid
Protocol: as §7, §8

[14] = target: T5, commercially available recombinant …; assay: ELISA on recombinant CD16B coated at 80 nM; scFv detected with anti-c-Myc-HRP (10 µg/ml)
Protocol: as §4, §5, §6

T1 sequence (P08637 17-208 L66R/F176V limits assumed): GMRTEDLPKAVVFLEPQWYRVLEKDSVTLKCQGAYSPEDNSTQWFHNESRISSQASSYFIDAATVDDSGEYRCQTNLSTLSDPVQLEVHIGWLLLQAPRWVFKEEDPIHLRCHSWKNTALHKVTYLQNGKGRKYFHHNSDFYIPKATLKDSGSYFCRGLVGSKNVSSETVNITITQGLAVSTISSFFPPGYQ
T5 sequence (O75015 17-200 N65S limits assumed): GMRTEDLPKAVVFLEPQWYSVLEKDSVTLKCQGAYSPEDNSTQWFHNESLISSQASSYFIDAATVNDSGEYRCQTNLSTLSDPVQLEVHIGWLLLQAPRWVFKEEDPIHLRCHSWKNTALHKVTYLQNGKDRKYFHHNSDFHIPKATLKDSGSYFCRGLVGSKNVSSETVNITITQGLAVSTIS
T2 sequence (O75015 17-200 N65S): as the sequence (O75015 17-200 N65S limits assumed) above
T6 sequence (O75015 17-200): as the sequence (O75015 17-200 N65S limits assumed) above, with S49N counted along it
T3 sequence (O76036 other isoform, or with tags, fused parts or gaps limits assumed): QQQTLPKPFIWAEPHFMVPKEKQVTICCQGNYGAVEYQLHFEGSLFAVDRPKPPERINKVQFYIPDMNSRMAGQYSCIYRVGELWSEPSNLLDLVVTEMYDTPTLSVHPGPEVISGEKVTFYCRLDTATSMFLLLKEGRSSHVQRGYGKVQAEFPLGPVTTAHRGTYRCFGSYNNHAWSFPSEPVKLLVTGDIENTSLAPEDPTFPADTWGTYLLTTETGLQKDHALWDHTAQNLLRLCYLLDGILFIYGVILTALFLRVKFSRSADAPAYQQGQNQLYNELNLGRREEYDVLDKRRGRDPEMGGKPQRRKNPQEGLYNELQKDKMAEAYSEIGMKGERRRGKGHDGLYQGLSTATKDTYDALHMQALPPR
T4 sequence (O76036 22-258 limits assumed): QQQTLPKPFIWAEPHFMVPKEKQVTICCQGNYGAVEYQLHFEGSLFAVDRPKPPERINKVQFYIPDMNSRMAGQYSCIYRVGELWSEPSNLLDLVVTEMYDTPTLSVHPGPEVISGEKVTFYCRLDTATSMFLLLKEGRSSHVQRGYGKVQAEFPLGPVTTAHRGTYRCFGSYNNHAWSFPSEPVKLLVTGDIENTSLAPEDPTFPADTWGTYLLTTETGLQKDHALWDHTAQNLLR
T10 sequence (O75015 17-200 N65S): as the sequence (O75015 17-200 N65S limits assumed) above
T9 sequence (O75015 17-200 N65S/A78D): as the sequence (O75015 17-200 N65S limits assumed) above, with A62D counted along it
T8 sequence (O75015 other isoform, or with tags, fused parts or gaps): as the sequence (O75015 17-200 N65S limits assumed) above, with S20R, S49N, N66D, I90V counted along it
T7 sequence (P22629 37-163 limits assumed): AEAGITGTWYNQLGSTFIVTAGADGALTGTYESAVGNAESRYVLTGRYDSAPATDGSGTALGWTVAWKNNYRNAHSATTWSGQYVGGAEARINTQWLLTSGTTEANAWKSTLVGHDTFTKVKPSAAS

Row | Binder | Kd [1] [nM] | binding result [2] | binding result [3] | binding result (NKp46-Fc [4]) | binding result [5] | binding result [6] | binding result (Streptavidin) | koff [7] [s⁻¹] | kon [7] [M⁻¹ s⁻¹] | Kd [8] [nM] | Kd [9] [nM] | koff [10] [s⁻¹] | kon [10] [M⁻¹ s⁻¹] | fold improvement of affinity over parental clone 50NI [11] [fold] | Kd [12] [nM] | binding result (CD16B-Fc^NA1) | binding result (CD16B-Fc^SH) | binding result (NKp46-Fc [13]) | binding result (CD16B-Fc^NA2) | binding result [14]
1 | B1 | 2560 | no binding (tested: 50 µg/mL) | no binding (tested: 50 µg/mL) | no binding (tested: 4 µg/ml) | no binding | no binding (tested: 50 µg/mL) | no binding | 0.0217 | 17600 | 1230 |  |  |  |  |  |  |  |  |  | 
2 | B2 | 203 | no binding (tested: 50 µg/mL) | no binding (tested: 50 µg/mL) |  |  | no binding (tested: 50 µg/mL) |  | 0.0063 | 56000 | 113 | ~50 | 0.00342 | 55400 | > 20 | 61.7 | no binding (tested: 4 µg/ml) | no binding (tested: 4 µg/ml) | no binding (tested: 4 µg/ml) | no binding (tested: 4 µg/ml) | no binding (tested: not given)
